Test [1] deals with T1, human FcγRIIaH extracellular domain, His-tagged (human, UniProt P12318 34-217).
T1 construct: also called human FcγRIIa (type H); FcgRIIaH
T1 sequence: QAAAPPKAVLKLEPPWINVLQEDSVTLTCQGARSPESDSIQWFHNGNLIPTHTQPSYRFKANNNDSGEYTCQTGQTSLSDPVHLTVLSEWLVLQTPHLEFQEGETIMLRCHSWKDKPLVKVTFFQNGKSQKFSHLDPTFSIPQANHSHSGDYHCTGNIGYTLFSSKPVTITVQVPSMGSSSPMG
Put plainly: SPR, antibody captured, FcgR analyte. On the technique in general: In SPR one partner is held on a chip, and binding of the other changes the refractive index at the surface.

The target of test [2] is T2, cynomolgus monkey FcγRIIa2 extracellular domain, His-tagged (cynomolgus monkey).
T2 construct: also called cyno FcγRIIa2; cynoFcgRIIa2
T2 chain: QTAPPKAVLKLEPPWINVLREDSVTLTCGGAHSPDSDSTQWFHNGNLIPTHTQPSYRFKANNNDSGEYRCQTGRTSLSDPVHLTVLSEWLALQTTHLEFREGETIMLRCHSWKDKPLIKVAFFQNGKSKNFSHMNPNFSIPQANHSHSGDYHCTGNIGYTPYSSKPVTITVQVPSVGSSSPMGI
Put plainly: SPR, antibody captured, FcgR analyte.

In test [3] the target is T3, human FcγRIIaR extracellular domain, His-tagged (human, UniProt P12318 34-217).
T3 construct: also called human FcγRIIa (type R); FcgRIIaR
T3 chain: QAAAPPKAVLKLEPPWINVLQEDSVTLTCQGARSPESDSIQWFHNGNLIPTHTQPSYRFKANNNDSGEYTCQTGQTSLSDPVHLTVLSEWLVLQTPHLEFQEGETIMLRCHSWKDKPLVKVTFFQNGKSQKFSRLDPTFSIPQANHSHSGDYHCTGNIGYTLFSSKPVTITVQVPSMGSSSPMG
The experiment in a line: SPR, antibody captured, FcgR analyte.

Test [4] concerns the target T4, cynomolgus monkey FcγRIIb extracellular domain, His-tagged (cynomolgus monkey).
T4 construct: also called cyno FcγRIIb; cynoFcγRIIb
T4 chain: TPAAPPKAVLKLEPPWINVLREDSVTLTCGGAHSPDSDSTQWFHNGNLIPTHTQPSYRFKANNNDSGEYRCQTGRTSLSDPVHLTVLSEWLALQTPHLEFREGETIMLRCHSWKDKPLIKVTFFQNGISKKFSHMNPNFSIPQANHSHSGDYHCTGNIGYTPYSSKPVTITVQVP
The experiment in a line: SPR, antibody captured, FcgR analyte.

For test [5], the target named is T5, cynomolgus monkey FcγRIIa3 extracellular domain, His-tagged (cynomolgus monkey).
T5 construct: also called cyno FcγRIIa3; cynoFcgRIIa3
T5 chain: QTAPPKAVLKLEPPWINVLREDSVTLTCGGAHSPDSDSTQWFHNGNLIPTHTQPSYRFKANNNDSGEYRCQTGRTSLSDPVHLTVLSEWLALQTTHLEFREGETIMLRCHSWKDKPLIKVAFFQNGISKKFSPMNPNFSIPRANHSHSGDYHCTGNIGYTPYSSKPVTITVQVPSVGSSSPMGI
Put plainly: SPR, antibody captured, FcgR analyte.

The target of test [6] is T6, cynomolgus monkey FcγRIIa1 extracellular domain, His-tagged (cynomolgus monkey).
T6 construct: also called cyno FcγRIIa1; cynoFcgRIIa1
T6 chain: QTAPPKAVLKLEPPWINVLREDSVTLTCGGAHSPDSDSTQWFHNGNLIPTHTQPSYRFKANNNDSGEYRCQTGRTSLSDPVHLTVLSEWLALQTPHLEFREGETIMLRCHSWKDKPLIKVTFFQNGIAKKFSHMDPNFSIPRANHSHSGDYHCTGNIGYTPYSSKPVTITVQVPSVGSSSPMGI
The experiment in a line: SPR, antibody captured, FcgR analyte.

For test [7], the target named is T7, human FcγRIIb extracellular domain, His-tagged (human, UniProt P31994 43-217).
T7 construct: also called FcgRIIb (human)
T7 sequence: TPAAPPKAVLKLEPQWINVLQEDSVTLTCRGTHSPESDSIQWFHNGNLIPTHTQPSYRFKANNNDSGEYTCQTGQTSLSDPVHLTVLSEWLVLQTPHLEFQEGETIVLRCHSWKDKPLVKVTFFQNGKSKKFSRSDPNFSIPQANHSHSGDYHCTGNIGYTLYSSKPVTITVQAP
The experiment in a line: SPR, antibody captured, FcgR analyte.

The target of test [8] is T8, cynomolgus monkey FcγRIIIaS extracellular domain, His-tagged (cynomolgus monkey, UniProt Q8SPW2 21-206 at identity 1.00)).
T8 construct: also called cyno FcγRIIIaS; cynoFcγRIIIaS
T8 chain: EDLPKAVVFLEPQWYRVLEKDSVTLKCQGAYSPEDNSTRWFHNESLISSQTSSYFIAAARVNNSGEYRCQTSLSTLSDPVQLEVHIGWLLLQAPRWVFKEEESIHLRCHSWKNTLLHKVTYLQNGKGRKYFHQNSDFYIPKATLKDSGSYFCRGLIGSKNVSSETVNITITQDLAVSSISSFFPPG
Put plainly: SPR, antibody captured, FcgR analyte.

The target in test [9] is T9, cynomolgus monkey FcγRIIa1 extracellular domain, C-terminal His-tag (cynomolgus monkey).
T9 construct: also called cyno FcγRIIa1; cynoFcgRIIa1; not shown: His-tag added to C-terminus
T9 chain: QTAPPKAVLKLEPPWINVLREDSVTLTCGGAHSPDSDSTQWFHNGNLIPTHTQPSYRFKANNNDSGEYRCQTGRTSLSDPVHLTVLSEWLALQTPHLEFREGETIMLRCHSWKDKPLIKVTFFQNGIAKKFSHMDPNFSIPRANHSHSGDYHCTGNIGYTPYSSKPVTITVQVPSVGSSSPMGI
Put plainly: SPR (Biacore), KD of SG1 / KD of variant.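 Also: relative to parent M103205H795-SG1 carrying the SG1 human heavy chain constant region.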

B1: M103205H795-MY196/M103202L889-SK1 (antibody, human IgG1, kappa)
heavy: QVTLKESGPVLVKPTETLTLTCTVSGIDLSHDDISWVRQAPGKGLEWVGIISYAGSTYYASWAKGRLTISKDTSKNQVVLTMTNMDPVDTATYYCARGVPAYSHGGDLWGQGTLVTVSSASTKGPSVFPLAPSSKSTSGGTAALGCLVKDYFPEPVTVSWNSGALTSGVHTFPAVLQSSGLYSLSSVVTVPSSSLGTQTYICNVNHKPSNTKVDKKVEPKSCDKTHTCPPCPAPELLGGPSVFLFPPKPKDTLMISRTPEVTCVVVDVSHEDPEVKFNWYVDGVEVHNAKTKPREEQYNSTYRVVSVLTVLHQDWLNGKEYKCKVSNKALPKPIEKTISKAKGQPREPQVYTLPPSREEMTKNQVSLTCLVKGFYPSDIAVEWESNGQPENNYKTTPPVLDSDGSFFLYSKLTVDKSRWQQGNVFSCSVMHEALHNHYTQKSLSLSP
light: DIVMTQSPATLSLSPGERATLSCTSSQSVYHANWLSWFQQKPGQPPKLLIYWASTLAYGVPSRFSGSGSGTDFTLTISSLQPEDAATYYCAGGYGGGRYAFGQGTKVEIKRTVAAPSVFIFPPSDEQLKSGTASVVCLLNNFYPREAKVQWKVDNALQSGNSQESVTEQDSKDSTYSLSSTLTLSKADYEKHKVYACEVTHQGLSSPVTKSFNRGEC
notes: Substitution put into M103205H795-SG1
For B1, the Kd in test [1] stood at 480 nM; in test [2], 3000 nM; in test [3], 1300 nM; in test [4] it was 2400 nM; in [5] it was 23 µM; in test [6] it was 2500 nM. Besides, the Kd in [7] came to 6.2 µM; in test [8] it was 600 nM.

B2: MS_M103205H795-SG1/M103202L889-SK1 (antibody, human IgG1, kappa)
heavy: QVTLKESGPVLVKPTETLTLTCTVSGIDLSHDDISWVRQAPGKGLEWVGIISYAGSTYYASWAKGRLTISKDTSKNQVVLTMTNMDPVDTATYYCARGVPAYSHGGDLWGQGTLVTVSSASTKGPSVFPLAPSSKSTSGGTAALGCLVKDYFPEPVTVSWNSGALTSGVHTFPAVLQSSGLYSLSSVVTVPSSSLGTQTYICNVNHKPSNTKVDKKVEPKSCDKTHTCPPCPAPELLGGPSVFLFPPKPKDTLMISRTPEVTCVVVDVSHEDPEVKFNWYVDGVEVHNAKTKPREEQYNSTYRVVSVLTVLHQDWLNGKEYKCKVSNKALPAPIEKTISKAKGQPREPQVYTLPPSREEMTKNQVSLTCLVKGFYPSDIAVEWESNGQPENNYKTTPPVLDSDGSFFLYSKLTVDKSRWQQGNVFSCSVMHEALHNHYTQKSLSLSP
light: DIVMTQSPATLSLSPGERATLSCTSSQSVYHANWLSWFQQKPGQPPKLLIYWASTLAYGVPSRFSGSGSGTDFTLTISSLQPEDAATYYCAGGYGGGRYAFGQGTKVEIKRTVAAPSVFIFPPSDEQLKSGTASVVCLLNNFYPREAKVQWKVDNALQSGNSQESVTEQDSKDSTYSLSSTLTLSKADYEKHKVYACEVTHQGLSSPVTKSFNRGEC
notes: Parent antibody; also called MS1032LO06-SG1
Regarding B2, the “KD fold (SG1 = 1)” value in test [9] was found to be 1 fold.

B3: M103205H795-MY143/M103202L889-SK1 (antibody, human IgG1, kappa)
heavy: QVTLKESGPVLVKPTETLTLTCTVSGIDLSHDDISWVRQAPGKGLEWVGIISYAGSTYYASWAKGRLTISKDTSKNQVVLTMTNMDPVDTATYYCARGVPAYSHGGDLWGQGTLVTVSSASTKGPSVFPLAPSSKSTSGGTAALGCLVKDYFPEPVTVSWNSGALTSGVHTFPAVLQSSGLYSLSSVVTVPSSSLGTQTYICNVNHKPSNTKVDKKVEPKSCDKTHTCPPCPAPELLSGPSVFLFPPKPKDTLMISRTPEVTCVVVDVSEEDPEVKFNWYVDGVEVHNAKTKPREEQYNSTYRVVSVLTVLHQDWLNGKEYKCKVSNKALPAPIEKTISKAKGQPREPQVYTLPPSREEMTKNQVSLTCLVKGFYPSDIAVEWESNGQPENNYKTTPMVLDSDGSFFLYSKLTVDKSRWQQGNVFSCSVMHEALHNHYTQKSLSLSP
light: DIVMTQSPATLSLSPGERATLSCTSSQSVYHANWLSWFQQKPGQPPKLLIYWASTLAYGVPSRFSGSGSGTDFTLTISSLQPEDAATYYCAGGYGGGRYAFGQGTKVEIKRTVAAPSVFIFPPSDEQLKSGTASVVCLLNNFYPREAKVQWKVDNALQSGNSQESVTEQDSKDSTYSLSSTLTLSKADYEKHKVYACEVTHQGLSSPVTKSFNRGEC
For B3, the “KD fold (SG1 = 1)” value in test [9] came out at 2.9 fold.

B4: M103205H795-MY209/M103202L889-SK1 (antibody, human IgG1, kappa)
heavy: QVTLKESGPVLVKPTETLTLTCTVSGIDLSHDDISWVRQAPGKGLEWVGIISYAGSTYYASWAKGRLTISKDTSKNQVVLTMTNMDPVDTATYYCARGVPAYSHGGDLWGQGTLVTVSSASTKGPSVFPLAPSSKSTSGGTAALGCLVKDYFPEPVTVSWNSGALTSGVHTFPAVLQSSGLYSLSSVVTVPSSSLGTQTYICNVNHKPSNTKVDKKVEPKSCDKTHTCPPCPAPELLNGPSVFLFPPKPKDTLMISRTPEVTCVVVDVSDEDPEVKFNWYVDGVEVHNAKTKPREELYNSTYRVVSVLTVLHQDWLNGKEYKCKVSNTALPKPIEKTISKAKGQPREPQVYTLPPSREEMTKNQVSLTCLVKGFYPSDIAVEWESNGQPENNYKTTPPVLDSDGSFFLYSKLTVDKSRWQQGNVFSCSVMHEALHNHYTQKSLSLSP
light: DIVMTQSPATLSLSPGERATLSCTSSQSVYHANWLSWFQQKPGQPPKLLIYWASTLAYGVPSRFSGSGSGTDFTLTISSLQPEDAATYYCAGGYGGGRYAFGQGTKVEIKRTVAAPSVFIFPPSDEQLKSGTASVVCLLNNFYPREAKVQWKVDNALQSGNSQESVTEQDSKDSTYSLSSTLTLSKADYEKHKVYACEVTHQGLSSPVTKSFNRGEC
As for B4, the “KD fold (SG1 = 1)” value in test [9] stood at 5.1 fold.

B5: M103205H795-MY142/M103202L889-SK1 (antibody, human IgG1, kappa)
heavy: QVTLKESGPVLVKPTETLTLTCTVSGIDLSHDDISWVRQAPGKGLEWVGIISYAGSTYYASWAKGRLTISKDTSKNQVVLTMTNMDPVDTATYYCARGVPAYSHGGDLWGQGTLVTVSSASTKGPSVFPLAPSSKSTSGGTAALGCLVKDYFPEPVTVSWNSGALTSGVHTFPAVLQSSGLYSLSSVVTVPSSSLGTQTYICNVNHKPSNTKVDKKVEPKSCDKTHTCPPCPAPELLEGPSVFLFPPKPKDTLMISRTPEVTCVVVDVSEEDPEVKFNWYVDGVEVHNAKTKPREEQYNSTYRVVSVLTVLHQDWLNGKEYKCKVSNKALPAPIEKTISKAKGQPREPQVYTLPPSREEMTKNQVSLTCLVKGFYPSDIAVEWESNGQPENNYKTTPMVLDSDGSFFLYSKLTVDKSRWQQGNVFSCSVMHEALHNHYTQKSLSLSP
light: DIVMTQSPATLSLSPGERATLSCTSSQSVYHANWLSWFQQKPGQPPKLLIYWASTLAYGVPSRFSGSGSGTDFTLTISSLQPEDAATYYCAGGYGGGRYAFGQGTKVEIKRTVAAPSVFIFPPSDEQLKSGTASVVCLLNNFYPREAKVQWKVDNALQSGNSQESVTEQDSKDSTYSLSSTLTLSKADYEKHKVYACEVTHQGLSSPVTKSFNRGEC
In the case of B5, the “KD fold (SG1 = 1)” value in test [9] worked out at 0.8 fold.

B6: M103205H795-MY213/M103202L889-SK1 (antibody, human IgG1, kappa)
heavy: QVTLKESGPVLVKPTETLTLTCTVSGIDLSHDDISWVRQAPGKGLEWVGIISYAGSTYYASWAKGRLTISKDTSKNQVVLTMTNMDPVDTATYYCARGVPAYSHGGDLWGQGTLVTVSSASTKGPSVFPLAPSSKSTSGGTAALGCLVKDYFPEPVTVSWNSGALTSGVHTFPAVLQSSGLYSLSSVVTVPSSSLGTQTYICNVNHKPSNTKVDKKVEPKSCDKTHTCPPCPAPELLNGPSVFLFPPKPKDTLMISRTPEVTCVVVDVSDEDPEVKFNWYVDGVEVHNAKTKPREEQYNSTYRVVSVLTVLHQDWLNGKEYKCKVSNKALPKPIEKTISKAKGQPREPQVYTLPPSREEMTKNQVSLTCLVKGFYPSDIAVEWESNGQPENNYKTTPKVLDSDGSFFLYSKLTVDKSRWQQGNVFSCSVMHEALHNHYTQKSLSLSP
light: DIVMTQSPATLSLSPGERATLSCTSSQSVYHANWLSWFQQKPGQPPKLLIYWASTLAYGVPSRFSGSGSGTDFTLTISSLQPEDAATYYCAGGYGGGRYAFGQGTKVEIKRTVAAPSVFIFPPSDEQLKSGTASVVCLLNNFYPREAKVQWKVDNALQSGNSQESVTEQDSKDSTYSLSSTLTLSKADYEKHKVYACEVTHQGLSSPVTKSFNRGEC
Take B6: the “KD fold (SG1 = 1)” value in test [9] was 6 fold.

What is called Kd is the concentration at which binding is half-saturated.

The values are drawn from patent US20200317768A1 (published 2020).
